Experimental data from article PMC12819147 (2025).
Blank lines part the entries; values can stand above or below the molecule they belong to.

Assays:
[1] = biological target: recombinant full-length H. sapiens CCR4–NOT deadenylase complex (human)
[2] = biological target: recombinant full-length H. sapiens CCR4–NOT deadenylase complex (human); remark: listed apart in the source
[3] = biological target: Schizosaccharomyces pombe Ccr4–Not complex with an FITC label on the Not9 subunit (S. pombe) (UniProt P87112); experiment: fluorescence polarisation; fluorescence anisotropy; Puf3 constructs titrated into 25 nM Ccr4–Not with FITC on Not9; 20 mM HEPES pH 8, 100 mM NaCl, 0.5 mM TCEP; quadratic fit; apparent KD
[4] = biological target: Schizosaccharomyces pombe Ccr4–Not complex with an FITC label on the Not9 subunit (S. pombe, UniProt P87112 1-2100; P87240 1-306; O13870 1-640; Q92368 1-283; O74874 1-690; O74856 …, fluorescein (FITC label) from a CoA–fluorescein conjugate on the YbbR tag at the N terminus); experiment: FP; apparent
[5] = biological target: Schizosaccharomyces pombe Ccr4–Not complex, full-length, unlabeled (Not1, Not2, Not3, Not4, Not9, Ccr4, Caf1) (S. pombe) (UniProt P87112)

fold decrease in stimulation of Ccr4–Not-mediated deadenylation (in vitro targeted deadenylation assay, t1/2) [5]: 2 fold | Kd [4]: 0.29 µM
B3: Puf3 variant with residues 53–68 replaced with a GSN linker (natural protein)
chain: MFTAVNSNPNASESISGNSAFNFPSAPVSSLDTNNYGQRRPSLLSGTSPTSSSNKQASLESPVSYSNPIPSLTWLSLDGDSPDSLVSTPTAPSANHHGNPFPNGKQSIKAMPSLVNLQEDSVISKFPNSLEVPFRKRSESTSSSLSGLHSDLRPLKTELYGQLNSECGARFPQTLKSPLTPIGGDSARTVSASTARTSDKFFPRHTRAHSDFWIPATSKPSRHASHSSIGDLTTITQSSISSGSGSFKPSWDGSFDSSLMAHQSYGTSPAFANGNSPTLKNDSSFFGSASVRPTVSPIGTSFRQSLPDISAFGIPKTETNPSEVVAPGTIPISVLPTSNFSAATPANPSLINQNGQEFLQQSRVLYLFHANKQRHFELSDILGNVVLFSTDQHGSRFIQQKLATATEEEREAVFQEIASTSCLQLMMDIFGNYVVQKYFEFGNEKQKQILLSQIKGHVFSLSLQMYGCRVVQKAIEYISPEHQVQLIQELDGHVLDCVCDQNGNHVIQKAIECIDTGHLQFILRALRPQIHVLSAHPYGCRVIQRAIEHCHSERKLIIEELLPHILKLTQDQYGNYVVQHILRTGSESDKKYIFDLMIDHLLFLSCHKFASNVVERCISYISDVDRRRILNKIISEKAENCSILMLMMKDKYANYVIQKLLDASPEEERDLLISYIYPHISVLKKFTYGKHLIMSVERFRQKSISAVPKLASKECK

stimulation of Ccr4–Not-mediated deadenylation (in vitro targeted deadenylation assay, t1/2) [5]: 2 fold | Kd [4]: 0.42 µM
B6: Puf3 variant with residues 217–232 replaced with a GSN linker (natural protein)
chain: MFTAVNSNPNASESISGNSAFNFPSAPVSSLDTNNYGQRRPSLLSGTSPTSSFFNSSMISSNYTFPHGSNKQASLESPVSYSNPIPSLTWLSLDGDSPDSLVSTPTAPSANHHGNPFPNGKQSIKAMPSLVNLQEDSVISKFPNSLEVPFRKRSESTSSSLSGLHSDLRPLKTELYGQLNSECGARFPQTLKSPLTPIGGDSARTVSASTARTSDKTSKPSRHASHSSIGDLTTITQSSISSGSGSFKPSWDGSFDSSLMAHQSYGTSPAFANGNSPTLKNDSSFFGSASVRPTVSPIGTSFRQSLPDISAFGIPKTETNPSEVVAPGTIPISVLPTSNFSAATPANPSLINQNGQEFLQQSRVLYLFHANKQRHFELSDILGNVVLFSTDQHGSRFIQQKLATATEEEREAVFQEIASTSCLQLMMDIFGNYVVQKYFEFGNEKQKQILLSQIKGHVFSLSLQMYGCRVVQKAIEYISPEHQVQLIQELDGHVLDCVCDQNGNHVIQKAIECIDTGHLQFILRALRPQIHVLSAHPYGCRVIQRAIEHCHSERKLIIEELLPHILKLTQDQYGNYVVQHILRTGSESDKKYIFDLMIDHLLFLSCHKFASNVVERCISYISDVDRRRILNKIISEKAENCSILMLMMKDKYANYVIQKLLDASPEEERDLLISYIYPHISVLKKFTYGKHLIMSVERFRQKSISAVPKLASKECK

Kd [3]: 0.8 µM
B7: Puf3 residues 109–258, GST–lipoyl tag fusion with no PUM domain (domain or fragment)
chain: SANHHGNPFPNGKQSIKAMPSLVNLQEDSVISKFPNSLEVPFRKRSESTSSSLSGLHSDLRPLKTELYGQLNSECGARFPQTLKSPLTPIGGDSARTVSASTARTSDKFFPRHTRAHSDFWIPATSKPSRHASHSSIGDLTTITQSSISS

Continued, molecule first:

Molecule: PUM1^Δ587 (from UniProt Q14671 588-1186) (domain or fragment)
fold decrease in stimulation of deadenylation by human CCR4–NOT (in vitro targeted deadenylation assay) [1]: 4 fold | stimulation of removal of the poly(A) tail by human CCR4–NOT [2]: 10 fold

Molecule: Puf3 variant with residues 53–68 and 217–232 both replaced with a GSN linker (from UniProt O94462 1-52; O94462 69-216; O94462 233-732) (natural protein)
Kd [3]: 10 µM

B1: MBP-tagged full-length S. pombe Puf3 (natural protein)
chain: MFTAVNSNPNASESISGNSAFNFPSAPVSSLDTNNYGQRRPSLLSGTSPTSSFFNSSMISSNYTFPHGSNKQASLESPVSYSNPIPSLTWLSLDGDSPDSLVSTPTAPSANHHGNPFPNGKQSIKAMPSLVNLQEDSVISKFPNSLEVPFRKRSESTSSSLSGLHSDLRPLKTELYGQLNSECGARFPQTLKSPLTPIGGDSARTVSASTARTSDKFFPRHTRAHSDFWIPATSKPSRHASHSSIGDLTTITQSSISSGSGSFKPSWDGSFDSSLMAHQSYGTSPAFANGNSPTLKNDSSFFGSASVRPTVSPIGTSFRQSLPDISAFGIPKTETNPSEVVAPGTIPISVLPTSNFSAATPANPSLINQNGQEFLQQSRVLYLFHANKQRHFELSDILGNVVLFSTDQHGSRFIQQKLATATEEEREAVFQEIASTSCLQLMMDIFGNYVVQKYFEFGNEKQKQILLSQIKGHVFSLSLQMYGCRVVQKAIEYISPEHQVQLIQELDGHVLDCVCDQNGNHVIQKAIECIDTGHLQFILRALRPQIHVLSAHPYGCRVIQRAIEHCHSERKLIIEELLPHILKLTQDQYGNYVVQHILRTGSESDKKYIFDLMIDHLLFLSCHKFASNVVERCISYISDVDRRRILNKIISEKAENCSILMLMMKDKYANYVIQKLLDASPEEERDLLISYIYPHISVLKKFTYGKHLIMSVERFRQKSISAVPKLASKECK
Kd [4]: 0.16 µM | Kd [3]: 0.1 µM

B2: Puf3 residues 158–258, GST–lipoyl tag fusion with no PUM domain (domain or fragment)
chain: SSSLSGLHSDLRPLKTELYGQLNSECGARFPQTLKSPLTPIGGDSARTVSASTARTSDKFFPRHTRAHSDFWIPATSKPSRHASHSSIGDLTTITQSSISS
Kd [3]: 7 µM

B4: Puf3 construct spanning residues 109–208 (anisotropy) (domain or fragment)
chain: SANHHGNPFPNGKQSIKAMPSLVNLQEDSVISKFPNSLEVPFRKRSESTSSSLSGLHSDLRPLKTELYGQLNSECGARFPQTLKSPLTPIGGDSARTVSA
Kd [4]: > 40 µM | Kd [3]: > 50 µM

B5: 1-158 (protein)
chain: MFTAVNSNPNASESISGNSAFNFPSAPVSSLDTNNYGQRRPSLLSGTSPTSSFFNSSMISSNYTFPHGSNKQASLESPVSYSNPIPSLTWLSLDGDSPDSLVSTPTAPSANHHGNPFPNGKQSIKAMPSLVNLQEDSVISKFPNSLEVPFRKRSESTSQSRVLYLFHANKQRHFELSDILGNVVLFSTDQHGSRFIQQKLATATEEEREAVFQEIASTSCLQLMMDIFGNYVVQKYFEFGNEKQKQILLSQIKGHVFSLSLQMYGCRVVQKAIEYISPEHQVQLIQELDGHVLDCVCDQNGNHVIQKAIECIDTGHLQFILRALRPQIHVLSAHPYGCRVIQRAIEHCHSERKLIIEELLPHILKLTQDQYGNYVVQHILRTGSESDKKYIFDLMIDHLLFLSCHKFASNVVERCISYISDVDRRRILNKIISEKAENCSILMLMMKDKYANYVIQKLLDASPEEERDLLISYIYPHISVLKKFTYGKHLIMSVERFRQKSISAVPKLASKECK
Kd [4]: ~10 µM
